Test results published in US8501692 (REGENTS OF THE UNIVERSITY OF MICHIGAN, dated 2013).
Positions count from the first letter of the chain named. Numbers in names are those of the source.

B1: G4C/S10C/T172R/G173Q CocE with H6 tag (enzyme)
chain: MVDCNYSVACNVMVPMRDGVRLAVDLYRPDADGPVPVLLVRNPYDKFDVFAWSTQSTNWLEFVRDGYAVVIQDTRGLFASEGEFVPHVDDEADAEDTLSWILEQAWCDGNVGMFGVSYLGVTQWQAAVSGVGGLKAIAPSMASADLYRAPWYGPGGALSVEALLGWSALIGRQLITSRSDARPEDAADFVQLAAILNDVAGAASVTPLAEQPLLGRLIPWVIDQVVDHPDNDESWQSISLFERLGGLATPALITAGWYDGFVGESLRTFVAVKDNADARLVVGPWSHSNLTGRNADRKFGIAATYPIQEATTMHKAFFDRHLRGETDALAGVPKVRLFVMGIDEWRDETDWPLPDTAYTPFYLGGSGAANTSTGGGTLSTSISGTESADTYLYDPADPVPSLGGTLLFHNGDNGPADQRPIHDRDDVLCYSTEVLTDPVEVTGTVSARLFVSSSAVDTDFTAKLVDVFPDGRAIALCDGIVRMRYRETLVNPTLIEAGEIYEVAIDMLATSNVFLPGHRIMVQVSSSNFPKYDRNSNTGGVIAREQLEEMCTAVNRIHRGPEHPSHIVLPIIKRKLAAALEHHHHHH
modifications: oxidized with CuCl2: disulfide bridge between Cys 4 of one monomer and Cys 10 of the other monomer
notes: Cloned and expressed like the CC mutant (C-terminal His tag); Cross-linked homodimer; also called CCRQ; CCRQ-CocE
B2: G4C/S10C/L169K/G173Q CocE with H6 tag (enzyme)
chain: B1 chain with L169K, R172T
modifications: oxidized with CuCl2: disulfide bridge between Cys 4 of one monomer and Cys 10 of the other monomer
notes: Cloned and expressed like the CC mutant (C-terminal His tag); Cross-linked homodimer; also called CCKQ; CCKQ tetramutant

Target: the molecule itself
Assay: SDS-PAGE after oxidation with CuCl2
Protocol: Oxidation: Purified proteins were oxidized in 50 mM Tris pH 8.0 buffer containing 100 μm CuCl_2 overnight at 4° C. CuCl_2 was then removed by chelating it by adding 1 mM EDTA to the above mixture. Protein was further purified by passing it through Q Sepharose column and eluting off the column with 150-500 mM NaCl gradient. Fractions containing purified oxidized protein were identified by running on a SDS-PAGE gel under non-reducing conditions and pooled and concentrated to 5 mg/ml and snap frozen in liq N_2 and stored at −80° C.

Row | Protein | binding result
1 | B1 | binds
2 | B2 | binds
